# Measured values from IntAct's records for PubMed 29039417.
# B1: Protein PTHB1 (Homo sapiens), Q3SYG4 (parent)
# chain: MSLFKARDWWSTILGDKEEFDQGCLCLANVDNSGNGQDKIIVGSFMGYLRIFSPHPAKTGDGAQAEDLLLEVDLRDPVLQVEVGKFVSGTEMLHLAVLHSRKLCVYSVSGTLGNVEHGNQCQMKLMYEHNLQRTACNMTYGSFGGVKGRDLICIQSMDGMLMVFEQESYAFGRFLPGFLLPGPLAYSSRTDSFLTVSSCQQVESYKYQVLAFATDADKRQETEQQKLGSGKRLVVDWTLNIGEQALDICIVSFNQSASSVFVLGERNFFCLKDNGQIRFMKKLDWSPSCFLPYCSVSEGTINTLIGNHNNMLHIYQDVTLKWATQLPHIPVAVRVGCLHDLKGVIVTLSDDGHLQCSYLGTDPSLFQAPNVQSRELNYDELDVEMKELQKIIKDVNKSQGVWPMTEREDDLNVSVVVSPNFDSVSQATDVEVGTDLVPSVTVKVTLQNRVILQKAKLSVYVQPPLELTCDQFTFEFMTPDLTRTVSFSVYLKRSYTPSELEGNAVVSYSRPTDRNPDGIPRVIQCKFRLPLKLICLPGQPSKTASHKITIDTNKSPVSLLSLFPGFASQSDDDQVNVMGFHFLGGARITVLASKTSQRYRIQSEQFEDLWLITNELILRLQEYFEKQGVKDFACSFSGSIPLQEYFELIDHHFELRINGEKLEELLSERAVQFRAIQRRLLARFKDKTPAPLQHLDTLLDGTYKQVIALADAVEENQGNLFQSFTRLKSATHLVILLIALWQKLSADQVAILEAAFLPLQEDTQELGWEETVDAAISHLLKTCLSKSSKEQALNLNSQLNIPKDTSQLKKHITLLCDRLSKGGRLCLSTDAAAPQTMVMPGGCTTIPESDLEERSVEQDSTELFTNHRHLTAETPRPEVSPLQGVSE
# partner: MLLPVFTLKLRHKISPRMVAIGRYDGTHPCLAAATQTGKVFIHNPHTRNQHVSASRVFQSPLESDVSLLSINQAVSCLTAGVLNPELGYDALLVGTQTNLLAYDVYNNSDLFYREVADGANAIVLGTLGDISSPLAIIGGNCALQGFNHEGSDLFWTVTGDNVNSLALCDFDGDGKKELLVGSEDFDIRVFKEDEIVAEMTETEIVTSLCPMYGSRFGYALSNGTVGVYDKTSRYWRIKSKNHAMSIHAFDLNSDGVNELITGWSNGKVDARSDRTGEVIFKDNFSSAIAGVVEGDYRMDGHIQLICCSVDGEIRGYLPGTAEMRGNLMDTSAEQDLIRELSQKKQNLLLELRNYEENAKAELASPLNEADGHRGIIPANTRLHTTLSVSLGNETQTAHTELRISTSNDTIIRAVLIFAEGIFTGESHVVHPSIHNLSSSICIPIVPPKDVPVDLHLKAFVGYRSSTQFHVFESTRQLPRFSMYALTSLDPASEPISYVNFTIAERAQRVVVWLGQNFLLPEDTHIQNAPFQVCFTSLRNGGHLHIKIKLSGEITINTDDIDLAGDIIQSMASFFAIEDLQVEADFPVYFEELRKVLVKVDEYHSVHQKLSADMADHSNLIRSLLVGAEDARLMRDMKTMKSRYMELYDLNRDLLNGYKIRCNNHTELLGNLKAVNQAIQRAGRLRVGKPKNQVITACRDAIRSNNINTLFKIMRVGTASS
# Variants of: B1
# Details: with bbs2_human BBS2, Q9BXC9
row,Variant,effect of a mutation on the interaction
1,M839E,with no effect
2,M839A,with no effect
3,M839K,disrupting interaction strength
4,T845E,with no effect
5,T845A,with no effect
6,T845K,with no effect
7,E848A,with no effect
8,E848K,with no effect
9,D850A,with no effect
10,D850E,with no effect
11,D850K,with no effect
12,T844A,with no effect
13,T844K,with no effect
14,T844E,with no effect
15,V838E,with no effect
16,V838A,disrupting interaction strength
17,V838K,with no effect
18,P847A,with no effect
19,P847K,with no effect
20,P847T,disrupting interaction strength
21,P847E,with no effect

row,Variant,effect of a mutation on the interaction
1,M837A,with no effect
2,M837E,with no effect
3,M837K,disrupting interaction strength
4,A832K,with no effect
5,A832E,with no effect
6,L851A,with no effect
7,G841E,with no effect
8,G841A,with no effect
9,G841K,with no effect
10,A833S,disrupting interaction strength
11,A833E,with no effect
12,A833K,with no effect
13,P834K,with no effect
14,P834A,with no effect
15,P834E,with no effect
16,Q835K,with no effect
17,Q835A,with no effect
18,Q835M,disrupting interaction strength
19,Q835E,with no effect
20,D830K,with no effect
21,D830E,with no effect

row,Variant,effect of a mutation on the interaction
1,D830A,with no effect
2,I846A,with no effect
3,I846K,with no effect
4,I846E,with no effect
5,G842E,with no effect
6,G842K,with no effect
7,G842A,with no effect
8,S849K,with no effect
9,S849E,with no effect
10,S849A,with no effect
11,P840K,with no effect
12,P840A,disrupting interaction strength
13,P840E,with no effect
14,A831E,with no effect
15,A831K,with no effect
16,C843A,with no effect
17,C843E,with no effect
18,C843K,with no effect
19,T836E,with no effect
20,T836A,with no effect
21,T836K,with no effect

# Results, then the variant that gave them:
row,effect of a mutation on the interaction,Variant
1,with no effect,T861E
2,with no effect,T861A
3,with no effect,V856A
4,with no effect,V856K
5,with no effect,V856E
6,with no effect,E857K
7,with no effect,E857A
8,with no effect,R854E
9,with no effect,R854K
10,with no effect,R854A
11,with no effect,D859E
12,with no effect,D859K
13,with no effect,D859A
14,with no effect,Q858K
15,with no effect,Q858E
16,with no effect,Q858A
17,with no effect,S860E
18,with no effect,S860A
19,with no effect,S860K
20,with no effect,L851E
21,with no effect,L851K
22,with no effect,E853A
23,with no effect,E853K
24,with no effect,E852A
25,with no effect,E852K
26,with no effect,S855K
27,with no effect,S855A
28,with no effect,S855E
